Experimental data reported in publication PMC9482650, “Quantitative fragmentomics allow affinity mapping of interactomes” (Nature Communications, 2022).

T1: SNTG1, Q9NSN8
T1 sequence (Q9NSN8 52-150, limits assumed, looked up): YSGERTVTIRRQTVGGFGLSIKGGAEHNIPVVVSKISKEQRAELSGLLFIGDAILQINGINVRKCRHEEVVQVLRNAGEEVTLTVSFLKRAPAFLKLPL

T2: TX1BP3, O14907
T2 sequence (O14907 10-122, limits assumed, looked up): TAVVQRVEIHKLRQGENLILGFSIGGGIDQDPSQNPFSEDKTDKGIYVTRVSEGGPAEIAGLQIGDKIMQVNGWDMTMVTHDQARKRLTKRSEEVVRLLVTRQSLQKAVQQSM

T3: DLG3_1, Q92796
T3 sequence (Q92796 125-227, limits assumed, looked up): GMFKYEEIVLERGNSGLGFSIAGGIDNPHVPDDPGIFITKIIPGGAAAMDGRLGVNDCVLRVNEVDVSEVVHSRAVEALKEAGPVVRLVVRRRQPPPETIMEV

T4: PDZD2_2, O15018
T4 sequence (O15018 329-429, limits assumed, looked up): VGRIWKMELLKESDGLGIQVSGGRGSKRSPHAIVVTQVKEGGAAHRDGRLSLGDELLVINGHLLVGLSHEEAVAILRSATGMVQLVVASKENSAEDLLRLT

T5: HTRA3, P83110
T5 sequence (P83110 354-453, limits assumed, looked up): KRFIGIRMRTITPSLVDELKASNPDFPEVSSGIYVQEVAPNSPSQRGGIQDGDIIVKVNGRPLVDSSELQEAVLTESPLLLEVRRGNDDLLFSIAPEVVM

T6: PCLO, Q9Y6V0
T6 sequence (Q9Y6V0 4491-4600, limits assumed, looked up): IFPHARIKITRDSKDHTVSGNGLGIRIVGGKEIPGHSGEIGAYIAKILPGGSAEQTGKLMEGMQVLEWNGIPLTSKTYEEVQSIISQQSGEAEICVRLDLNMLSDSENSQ

T7: TIAM2, Q8IVF5
T7 sequence (Q8IVF5 885-986, limits assumed, looked up): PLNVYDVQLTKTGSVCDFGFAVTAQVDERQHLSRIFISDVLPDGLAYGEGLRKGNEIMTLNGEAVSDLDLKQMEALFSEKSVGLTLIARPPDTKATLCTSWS

T8: RAPGEF6, Q8TEU7
T8 sequence (Q8TEU7 525-625, limits assumed, looked up): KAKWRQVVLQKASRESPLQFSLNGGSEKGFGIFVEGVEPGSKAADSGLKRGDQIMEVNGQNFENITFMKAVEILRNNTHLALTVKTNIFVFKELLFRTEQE

T9: LIN7B, Q9HAP6
T9 sequence (Q9HAP6 88-185, limits assumed, looked up): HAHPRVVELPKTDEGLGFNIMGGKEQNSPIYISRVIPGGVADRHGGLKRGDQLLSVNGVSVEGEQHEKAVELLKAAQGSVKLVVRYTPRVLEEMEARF


What follows are binders tested against SCRIB_3, Q14160 (assay: holdup assay). Conditions: plain residues with an end cap or a label only (N-terminal biotin on a linker: ado-ado).
Parameters: key: below the threshold = too weak to quantify, mostly under pKd 3.1 to 4

Sequence of SCRIB_3, Q14160 (Q14160 999-1103): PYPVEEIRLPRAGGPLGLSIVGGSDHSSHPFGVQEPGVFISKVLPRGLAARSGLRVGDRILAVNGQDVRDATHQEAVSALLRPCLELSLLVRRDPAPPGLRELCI

Row | Binder | pKd
1 | LAHVKHKEQI [AQP3, Q92482] | below the threshold
2 | RFQQRMQTHV [KIRREL1, Q96J84] | 4.33

Each binder was assayed against MAGI2_3, Q86UL8 (assay: holdup assay). Conditions: plain residues with an end cap or a label only (N-terminal biotin on a linker: ado-ado).
Parameters: key: below the threshold = too weak to quantify, mostly under pKd 3.1 to 4

Sequence of MAGI2_3, Q86UL8 (Q86UL8 600-682): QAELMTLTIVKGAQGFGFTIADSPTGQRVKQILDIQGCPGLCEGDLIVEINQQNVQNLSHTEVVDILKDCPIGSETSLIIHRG

Row | Binder | pKd
3 | LAHVKHKEQI [AQP3, Q92482] | below the threshold
4 | RFQQRMQTHV [KIRREL1, Q96J84] | 3.75

What follows are binders tested against T1, SNTG1, Q9NSN8 (assay: holdup assay). Conditions: plain residues with an end cap or a label only (N-terminal biotin on a linker: ado-ado).
Parameters: key: below the threshold = too weak to quantify, mostly under pKd 3.1 to 4

Row | Binder | pKd
5 | LAHVKHKEQI [AQP3, Q92482] | below the threshold
6 | RFQQRMQTHV [KIRREL1, Q96J84] | below the threshold

The binders below were run against Inadl_1, Q8NI35 (assay: holdup assay). Conditions: plain residues with an end cap or a label only (N-terminal biotin on a linker: ado-ado).
Parameters: key: below the threshold = too weak to quantify, mostly under pKd 3.1 to 4

Sequence of Inadl_1, Q8NI35 (Q8NI35 113-229): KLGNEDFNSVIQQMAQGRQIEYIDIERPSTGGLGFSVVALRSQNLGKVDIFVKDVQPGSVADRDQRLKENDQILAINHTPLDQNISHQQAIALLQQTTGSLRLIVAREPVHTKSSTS

Row | Binder | pKd
7 | LAHVKHKEQI [AQP3, Q92482] | below the threshold
8 | RFQQRMQTHV [KIRREL1, Q96J84] | below the threshold

What follows are binders tested against Inadl_9, Q8NI35 (assay: holdup assay). Conditions: plain residues with an end cap or a label only (N-terminal biotin on a linker: ado-ado).
Parameters: key: below the threshold = too weak to quantify, mostly under pKd 3.1 to 4

Sequence of Inadl_9, Q8NI35 (Q8NI35 1530-1615): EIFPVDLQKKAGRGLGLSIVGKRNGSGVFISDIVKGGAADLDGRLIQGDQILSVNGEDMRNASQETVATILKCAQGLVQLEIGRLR

Row | Binder | pKd
9 | LAHVKHKEQI [AQP3, Q92482] | below the threshold
10 | RFQQRMQTHV [KIRREL1, Q96J84] | below the threshold

Each binder was assayed against GOPC, Q9HD26 (assay: holdup assay). Conditions: plain residues with an end cap or a label only (N-terminal biotin on a linker: ado-ado).
Parameters: key: below the threshold = too weak to quantify, mostly under pKd 3.1 to 4

Row | Binder | pKd
11 | LAHVKHKEQI [AQP3, Q92482] | below the threshold
12 | RFQQRMQTHV [KIRREL1, Q96J84] | 3.91

The binders below were run against Inadl_6, Q8NI35 (assay: holdup assay). Conditions: plain residues with an end cap or a label only (N-terminal biotin on a linker: ado-ado).
Parameters: key: below the threshold = too weak to quantify, mostly under pKd 3.1 to 4

Sequence of Inadl_6, Q8NI35 (Q8NI35 1058-1167): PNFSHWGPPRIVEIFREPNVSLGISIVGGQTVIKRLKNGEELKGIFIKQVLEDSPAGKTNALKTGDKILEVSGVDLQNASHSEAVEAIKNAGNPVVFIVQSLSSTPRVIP

Row | Binder | pKd
13 | LAHVKHKEQI [AQP3, Q92482] | below the threshold
14 | RFQQRMQTHV [KIRREL1, Q96J84] | below the threshold

Each binder was assayed against DLG4_3, P78352 (assay: holdup assay). Conditions: plain residues with an end cap or a label only (N-terminal biotin on a linker: ado-ado).
Parameters: key: below the threshold = too weak to quantify, mostly under pKd 3.1 to 4

Sequence of DLG4_3, P78352 (P78352 306-403): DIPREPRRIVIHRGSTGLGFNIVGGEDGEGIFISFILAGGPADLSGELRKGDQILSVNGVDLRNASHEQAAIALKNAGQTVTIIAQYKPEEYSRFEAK

Row | Binder | pKd
15 | LAHVKHKEQI [AQP3, Q92482] | below the threshold
16 | RFQQRMQTHV [KIRREL1, Q96J84] | 4.4

Each binder was assayed against T2, TX1BP3, O14907 (assay: holdup assay). Conditions: plain residues with an end cap or a label only (N-terminal biotin on a linker: ado-ado).
Parameters: key: below the threshold = too weak to quantify, mostly under pKd 3.1 to 4

Row | Binder | pKd
17 | LAHVKHKEQI [AQP3, Q92482] | below the threshold
18 | RFQQRMQTHV [KIRREL1, Q96J84] | 4.85

The binders below were run against TJP2_1, Q9UDY2 (assay: holdup assay). Conditions: plain residues with an end cap or a label only (N-terminal biotin on a linker: ado-ado).
Parameters: key: below the threshold = too weak to quantify, mostly under pKd 3.1 to 4

Sequence of TJP2_1, Q9UDY2 (Q9UDY2 24-128): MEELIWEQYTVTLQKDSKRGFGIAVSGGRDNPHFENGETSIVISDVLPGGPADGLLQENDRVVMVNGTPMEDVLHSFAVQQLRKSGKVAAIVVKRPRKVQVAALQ

Row | Binder | pKd
19 | LAHVKHKEQI [AQP3, Q92482] | below the threshold
20 | RFQQRMQTHV [KIRREL1, Q96J84] | 4.82

Each binder was assayed against HTRA2, O43464 (assay: holdup assay). Conditions: plain residues with an end cap or a label only (N-terminal biotin on a linker: ado-ado).
Parameters: key: below the threshold = too weak to quantify, mostly under pKd 3.1 to 4

Sequence of HTRA2, O43464 (O43464 355-458): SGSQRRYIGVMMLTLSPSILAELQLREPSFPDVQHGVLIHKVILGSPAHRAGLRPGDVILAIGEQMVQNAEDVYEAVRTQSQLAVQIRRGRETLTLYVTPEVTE

Row | Binder | pKd
21 | LAHVKHKEQI [AQP3, Q92482] | below the threshold
22 | RFQQRMQTHV [KIRREL1, Q96J84] | below the threshold

What follows are binders tested against T3, DLG3_1, Q92796 (assay: holdup assay). Conditions: plain residues with an end cap or a label only (N-terminal biotin on a linker: ado-ado).
Parameters: key: below the threshold = too weak to quantify, mostly under pKd 3.1 to 4

Row | Binder | pKd
23 | LAHVKHKEQI [AQP3, Q92482] | below the threshold
24 | RFQQRMQTHV [KIRREL1, Q96J84] | 3.57

These binders were tested against T4, PDZD2_2, O15018 (assay: holdup assay). Conditions: plain residues with an end cap or a label only (N-terminal biotin on a linker: ado-ado).
Parameters: key: below the threshold = too weak to quantify, mostly under pKd 3.1 to 4

Row | Binder | pKd
25 | LAHVKHKEQI [AQP3, Q92482] | below the threshold
26 | RFQQRMQTHV [KIRREL1, Q96J84] | 4.4

These binders were tested against DLG4_2, P78352 (assay: holdup assay). Conditions: plain residues with an end cap or a label only (N-terminal biotin on a linker: ado-ado).
Parameters: key: below the threshold = too weak to quantify, mostly under pKd 3.1 to 4

Sequence of DLG4_2, P78352 (P78352 155-259): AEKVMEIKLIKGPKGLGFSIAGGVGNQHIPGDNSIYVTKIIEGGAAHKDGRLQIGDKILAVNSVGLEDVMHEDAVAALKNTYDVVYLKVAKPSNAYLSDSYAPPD

Row | Binder | pKd
27 | LAHVKHKEQI [AQP3, Q92482] | below the threshold
28 | RFQQRMQTHV [KIRREL1, Q96J84] | 4.64

What follows are binders tested against NHERF4_2, Q86UT5 (assay: holdup assay). Conditions: plain residues with an end cap or a label only (N-terminal biotin on a linker: ado-ado).
Parameters: key: below the threshold = too weak to quantify, mostly under pKd 3.1 to 4

Sequence of NHERF4_2, Q86UT5 (Q86UT5 220-308): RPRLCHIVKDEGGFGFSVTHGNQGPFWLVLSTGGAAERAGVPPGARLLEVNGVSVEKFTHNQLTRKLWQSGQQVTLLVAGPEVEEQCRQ

Row | Binder | pKd
29 | LAHVKHKEQI [AQP3, Q92482] | below the threshold
30 | RFQQRMQTHV [KIRREL1, Q96J84] | below the threshold

Each binder was assayed against FRMPD2_2, Q68DX3 (assay: holdup assay). Conditions: plain residues with an end cap or a label only (N-terminal biotin on a linker: ado-ado).
Parameters: key: below the threshold = too weak to quantify, mostly under pKd 3.1 to 4

Sequence of FRMPD2_2, Q68DX3 (Q68DX3 944-1038): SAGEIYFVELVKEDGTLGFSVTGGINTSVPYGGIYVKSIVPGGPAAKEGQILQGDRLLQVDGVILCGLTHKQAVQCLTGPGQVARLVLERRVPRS

Row | Binder | pKd
31 | LAHVKHKEQI [AQP3, Q92482] | below the threshold
32 | RFQQRMQTHV [KIRREL1, Q96J84] | below the threshold

These binders were tested against T5, HTRA3, P83110 (assay: holdup assay). Conditions: plain residues with an end cap or a label only (N-terminal biotin on a linker: ado-ado).
Parameters: key: below the threshold = too weak to quantify, mostly under pKd 3.1 to 4

Row | Binder | pKd
33 | LAHVKHKEQI [AQP3, Q92482] | below the threshold
34 | RFQQRMQTHV [KIRREL1, Q96J84] | below the threshold

These binders were tested against PDLIM1, O00151 (assay: holdup assay). Conditions: plain residues with an end cap or a label only (N-terminal biotin on a linker: ado-ado).
Parameters: key: below the threshold = too weak to quantify, mostly under pKd 3.1 to 4

Sequence of PDLIM1, O00151 (O00151 1-87): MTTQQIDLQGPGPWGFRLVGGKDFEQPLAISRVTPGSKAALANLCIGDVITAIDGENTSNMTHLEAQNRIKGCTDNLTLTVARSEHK

Row | Binder | pKd
35 | LAHVKHKEQI [AQP3, Q92482] | below the threshold
36 | RFQQRMQTHV [KIRREL1, Q96J84] | below the threshold

The binders below were run against FRMPD2_1, Q68DX3 (assay: holdup assay). Conditions: plain residues with an end cap or a label only (N-terminal biotin on a linker: ado-ado).
Parameters: key: below the threshold = too weak to quantify, mostly under pKd 3.1 to 4

Sequence of FRMPD2_1, Q68DX3 (Q68DX3 770-861): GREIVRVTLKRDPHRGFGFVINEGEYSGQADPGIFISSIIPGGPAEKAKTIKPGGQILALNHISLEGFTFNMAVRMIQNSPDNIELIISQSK

Row | Binder | pKd
37 | LAHVKHKEQI [AQP3, Q92482] | below the threshold
38 | RFQQRMQTHV [KIRREL1, Q96J84] | below the threshold

The binders below were run against T6, PCLO, Q9Y6V0 (assay: holdup assay). Conditions: plain residues with an end cap or a label only (N-terminal biotin on a linker: ado-ado).
Parameters: key: below the threshold = too weak to quantify, mostly under pKd 3.1 to 4

Row | Binder | pKd
39 | LAHVKHKEQI [AQP3, Q92482] | below the threshold
40 | RFQQRMQTHV [KIRREL1, Q96J84] | below the threshold

These binders were tested against T7, TIAM2, Q8IVF5 (assay: holdup assay). Conditions: plain residues with an end cap or a label only (N-terminal biotin on a linker: ado-ado).
Parameters: key: below the threshold = too weak to quantify, mostly under pKd 3.1 to 4

Row | Binder | pKd
41 | LAHVKHKEQI [AQP3, Q92482] | below the threshold
42 | RFQQRMQTHV [KIRREL1, Q96J84] | 3.97

Each binder was assayed against T8, RAPGEF6, Q8TEU7 (assay: holdup assay). Conditions: plain residues with an end cap or a label only (N-terminal biotin on a linker: ado-ado).
Parameters: key: below the threshold = too weak to quantify, mostly under pKd 3.1 to 4

Row | Binder | pKd
43 | LAHVKHKEQI [AQP3, Q92482] | below the threshold
44 | RFQQRMQTHV [KIRREL1, Q96J84] | below the threshold

What follows are binders tested against GRIP2_4, Q9C0E4 (assay: holdup assay). Conditions: plain residues with an end cap or a label only (N-terminal biotin on a linker: ado-ado).
Parameters: key: below the threshold = too weak to quantify, mostly under pKd 3.1 to 4

Sequence of GRIP2_4, Q9C0E4 (Q9C0E4 446-548): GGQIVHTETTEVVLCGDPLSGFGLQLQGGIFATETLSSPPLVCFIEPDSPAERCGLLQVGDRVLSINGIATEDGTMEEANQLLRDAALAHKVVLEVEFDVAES

Row | Binder | pKd
45 | LAHVKHKEQI [AQP3, Q92482] | below the threshold
46 | RFQQRMQTHV [KIRREL1, Q96J84] | below the threshold

Each binder was assayed against IL16_4, Q14005 (assay: holdup assay). Conditions: plain residues with an end cap or a label only (N-terminal biotin on a linker: ado-ado).
Parameters: key: below the threshold = too weak to quantify, mostly under pKd 3.1 to 4

Sequence of IL16_4, Q14005 (Q14005 1229-1329): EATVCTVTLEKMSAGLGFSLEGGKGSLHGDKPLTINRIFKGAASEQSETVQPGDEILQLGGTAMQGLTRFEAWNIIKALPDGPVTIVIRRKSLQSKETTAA

Row | Binder | pKd
47 | LAHVKHKEQI [AQP3, Q92482] | below the threshold
48 | RFQQRMQTHV [KIRREL1, Q96J84] | below the threshold

What follows are binders tested against TJP1_3, Q07157 (assay: holdup assay). Conditions: plain residues with an end cap or a label only (N-terminal biotin on a linker: ado-ado).
Parameters: key: below the threshold = too weak to quantify, mostly under pKd 3.1 to 4

Sequence of TJP1_3, Q07157 (Q07157 416-512): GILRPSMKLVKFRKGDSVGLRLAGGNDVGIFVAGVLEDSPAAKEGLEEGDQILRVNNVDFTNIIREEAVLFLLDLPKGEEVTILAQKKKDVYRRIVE

Row | Binder | pKd
49 | LAHVKHKEQI [AQP3, Q92482] | below the threshold
50 | RFQQRMQTHV [KIRREL1, Q96J84] | below the threshold

What follows are binders tested against T9, LIN7B, Q9HAP6 (assay: holdup assay). Conditions: plain residues with an end cap or a label only (N-terminal biotin on a linker: ado-ado).
Parameters: key: below the threshold = too weak to quantify, mostly under pKd 3.1 to 4

Row | Binder | pKd
51 | LAHVKHKEQI [AQP3, Q92482] | below the threshold
52 | RFQQRMQTHV [KIRREL1, Q96J84] | below the threshold

The binders below were run against LNX1_1, Q8TBB1 (assay: holdup assay). Conditions: plain residues with an end cap or a label only (N-terminal biotin on a linker: ado-ado).
Parameters: key: below the threshold = too weak to quantify, mostly under pKd 3.1 to 4

Sequence of LNX1_1, Q8TBB1 (Q8TBB1 261-371): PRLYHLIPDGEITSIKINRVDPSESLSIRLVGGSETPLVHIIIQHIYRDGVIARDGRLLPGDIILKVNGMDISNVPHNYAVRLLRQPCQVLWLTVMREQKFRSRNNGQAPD

Row | Binder | pKd
53 | LAHVKHKEQI [AQP3, Q92482] | below the threshold
54 | RFQQRMQTHV [KIRREL1, Q96J84] | below the threshold

What follows are binders tested against LAP2, Q96RT1 (assay: holdup assay). Conditions: plain residues with an end cap or a label only (N-terminal biotin on a linker: ado-ado).
Parameters: key: below the threshold = too weak to quantify, mostly under pKd 3.1 to 4

Sequence of LAP2, Q96RT1 (Q96RT1 other isoform, or with tags, fused parts or gaps): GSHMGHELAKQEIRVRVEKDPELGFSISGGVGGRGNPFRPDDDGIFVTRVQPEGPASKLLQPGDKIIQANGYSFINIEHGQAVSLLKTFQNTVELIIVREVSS

Row | Binder | pKd
55 | LAHVKHKEQI [AQP3, Q92482] | below the threshold
56 | RFQQRMQTHV [KIRREL1, Q96J84] | below the threshold
